# *1 amine or outer side, *2 acyl side, *3 side chain or, on linkers, in order; H or OH if unused. [ ]: non-standard residue; d: D form. TyrEtNAc = L-tyrosine O-ethyl acetamide, (S)-3-(4-(2-acetamidoethoxy)phenyl)-2-aminopropanoic acid, CC(=O)NCCOc1ccc(C[C@H](N[*:1])C(=O)[*:2])cc1; AbuMph = (S)-2-amino-4-morpholinobutanoic acid, O=C([C@H](CCN1CCOCC1)N[*:1])[*:2]; Trp(4-Cl)(βS-Me) = C[C@@H](c1c[nH]c2cccc(Cl)c12)[C@H](N)C(=O)O; Pro(trans-4-NH2) = O=C([C@@H]1C[C@@H](N[*:3])CN1[*:1])[*:2]; Trp(βS-Me,4-F) = C[C@@H](c1c[nH]c2cccc(F)c12)[C@H](N)C(=O)O; Bip(4'-COOH) = N[C@@H](Cc1ccc(-c2ccc(C(=O)O)cc2)cc1)C(=O)O; SerOMe = O-methyl-L-serine, COC[C@H](N[*:1])C(=O)[*:2]; Phe(4-COOH) = N[C@@H](Cc1ccc(C(=O)O)cc1)C(=O)O; h3Pal(5-CN) = N#Cc1cncc(CC[C@H](N)C(=O)O)c1; 1Nal = N[C@@H](Cc1cccc2ccccc12)C(=O)O; hTyr = N[C@@H](CCc1ccc(O)cc1)C(=O)O; hPhe = N[C@@H](CCc1ccccc1)C(=O)O; 4Pal = N[C@@H](Cc1ccncc1)C(=O)O; dDab = NCC[C@@H](N)C(=O)O; dNMeA = CN[C@H](C)C(=O)O; Dab = NCC[C@H](N)C(=O)O; Nva = CCC[C@H](N)C(=O)O
# B1: SEQ ID NO: 151 (Example No. 151) (peptide)
# peptide: cyclo([TyrEtNAc]W[Phe(4-COOH)]G[Pro(trans-4-NH2)][Trp(4-Cl)(βS-Me)]D[dNMeA]G[Bip(4'-COOH)]WS[dA][hTyr])
# SMILES: CC(=O)NCCOc1ccc(C[C@@H]2NC(=O)[C@H](CCc3ccc(O)cc3)NC(=O)[C@@H](C)NC(=O)[C@H](CO)NC(=O)[C@H](Cc3c[nH]c4ccccc34)NC(=O)[C@H](Cc3ccc(-c4ccc(C(=O)O)cc4)cc3)NC(=O)CNC(=O)[C@@H](C)N(C)C(=O)[C@H](CC(=O)O)NC(=O)[C@H]([C@@H](C)c3c[nH]c4cccc(Cl)c34)NC(=O)[C@@H]3C[C@@H](N)CN3C(=O)CNC(=O)[C@H](Cc3ccc(C(=O)O)cc3)NC(=O)[C@H](Cc3c[nH]c4ccccc34)NC2=O)cc1
# B2: SEQ ID NO: 156 (Example No. 156) (peptide)
# peptide: cyclo([TyrEtNAc]W[Phe(4-COOH)]G[Pro(trans-4-NH2)][Trp(βS-Me,4-F)]D[dNMeA]G[Bip(4'-COOH)][4Pal]L[dA][hTyr])
# SMILES: CC(=O)NCCOc1ccc(C[C@@H]2NC(=O)[C@H](CCc3ccc(O)cc3)NC(=O)[C@@H](C)NC(=O)[C@H](CC(C)C)NC(=O)[C@H](Cc3ccncc3)NC(=O)[C@H](Cc3ccc(-c4ccc(C(=O)O)cc4)cc3)NC(=O)CNC(=O)[C@@H](C)N(C)C(=O)[C@H](CC(=O)O)NC(=O)[C@H]([C@@H](C)c3c[nH]c4cccc(F)c34)NC(=O)[C@@H]3C[C@@H](N)CN3C(=O)CNC(=O)[C@H](Cc3ccc(C(=O)O)cc3)NC(=O)[C@H](Cc3c[nH]c4ccccc34)NC2=O)cc1
# B3: SEQ ID NO: 159 (Example No. 159) (peptide)
# peptide: cyclo([TyrEtNAc]W[Phe(4-COOH)]G[Pro(trans-4-NH2)][Trp(βS-Me,4-F)]D[dNMeA]G[Bip(4'-COOH)]KL[dA][hTyr])
# SMILES: CC(=O)NCCOc1ccc(C[C@@H]2NC(=O)[C@H](CCc3ccc(O)cc3)NC(=O)[C@@H](C)NC(=O)[C@H](CC(C)C)NC(=O)[C@H](CCCCN)NC(=O)[C@H](Cc3ccc(-c4ccc(C(=O)O)cc4)cc3)NC(=O)CNC(=O)[C@@H](C)N(C)C(=O)[C@H](CC(=O)O)NC(=O)[C@H]([C@@H](C)c3c[nH]c4cccc(F)c34)NC(=O)[C@@H]3C[C@@H](N)CN3C(=O)CNC(=O)[C@H](Cc3ccc(C(=O)O)cc3)NC(=O)[C@H](Cc3c[nH]c4ccccc34)NC2=O)cc1
# B4: SEQ ID NO: 154 (Example No. 154) (peptide)
# peptide: cyclo([TyrEtNAc]W[Phe(4-COOH)]G[Pro(trans-4-NH2)][Trp(βS-Me,4-F)]D[dNMeA]G[Bip(4'-COOH)][1Nal][Dab][dA][hTyr])
# SMILES: CC(=O)NCCOc1ccc(C[C@@H]2NC(=O)[C@H](CCc3ccc(O)cc3)NC(=O)[C@@H](C)NC(=O)[C@H](CCN)NC(=O)[C@H](Cc3cccc4ccccc34)NC(=O)[C@H](Cc3ccc(-c4ccc(C(=O)O)cc4)cc3)NC(=O)CNC(=O)[C@@H](C)N(C)C(=O)[C@H](CC(=O)O)NC(=O)[C@H]([C@@H](C)c3c[nH]c4cccc(F)c34)NC(=O)[C@@H]3C[C@@H](N)CN3C(=O)CNC(=O)[C@H](Cc3ccc(C(=O)O)cc3)NC(=O)[C@H](Cc3c[nH]c4ccccc34)NC2=O)cc1
# B5: SEQ ID NO: 153 (Example No. 153) (peptide)
# peptide: cyclo([TyrEtNAc]W[Phe(4-COOH)]G[Pro(trans-4-NH2)][Trp(4-Cl)(βS-Me)]D[dNMeA]G[Bip(4'-COOH)]W[SerOMe][dA][hTyr])
# SMILES: COC[C@@H]1NC(=O)[C@H](Cc2c[nH]c3ccccc23)NC(=O)[C@H](Cc2ccc(-c3ccc(C(=O)O)cc3)cc2)NC(=O)CNC(=O)[C@@H](C)N(C)C(=O)[C@H](CC(=O)O)NC(=O)[C@H]([C@@H](C)c2c[nH]c3cccc(Cl)c23)NC(=O)[C@@H]2C[C@@H](N)CN2C(=O)CNC(=O)[C@H](Cc2ccc(C(=O)O)cc2)NC(=O)[C@H](Cc2c[nH]c3ccccc23)NC(=O)[C@H](Cc2ccc(OCCNC(C)=O)cc2)NC(=O)[C@H](CCc2ccc(O)cc2)NC(=O)[C@@H](C)NC1=O
# B6: SEQ ID NO: 155 (Example No. 155) (peptide)
# peptide: cyclo([TyrEtNAc]W[Phe(4-COOH)]G[Pro(trans-4-NH2)][Trp(βS-Me,4-F)]D[dNMeA]G[Bip(4'-COOH)][1Nal]S[dA][hTyr])
# SMILES: CC(=O)NCCOc1ccc(C[C@@H]2NC(=O)[C@H](CCc3ccc(O)cc3)NC(=O)[C@@H](C)NC(=O)[C@H](CO)NC(=O)[C@H](Cc3cccc4ccccc34)NC(=O)[C@H](Cc3ccc(-c4ccc(C(=O)O)cc4)cc3)NC(=O)CNC(=O)[C@@H](C)N(C)C(=O)[C@H](CC(=O)O)NC(=O)[C@H]([C@@H](C)c3c[nH]c4cccc(F)c34)NC(=O)[C@@H]3C[C@@H](N)CN3C(=O)CNC(=O)[C@H](Cc3ccc(C(=O)O)cc3)NC(=O)[C@H](Cc3c[nH]c4ccccc34)NC2=O)cc1
# B7: SEQ ID NO: 150 (Example No. 150) (peptide)
# peptide: cyclo([TyrEtNAc]W[Phe(4-COOH)]G[Pro(trans-4-NH2)][Trp(4-Cl)(βS-Me)]D[dNMeA]G[Bip(4'-COOH)]WS[dA][hPhe])
# SMILES: CC(=O)NCCOc1ccc(C[C@@H]2NC(=O)[C@H](CCc3ccccc3)NC(=O)[C@@H](C)NC(=O)[C@H](CO)NC(=O)[C@H](Cc3c[nH]c4ccccc34)NC(=O)[C@H](Cc3ccc(-c4ccc(C(=O)O)cc4)cc3)NC(=O)CNC(=O)[C@@H](C)N(C)C(=O)[C@H](CC(=O)O)NC(=O)[C@H]([C@@H](C)c3c[nH]c4cccc(Cl)c34)NC(=O)[C@@H]3C[C@@H](N)CN3C(=O)CNC(=O)[C@H](Cc3ccc(C(=O)O)cc3)NC(=O)[C@H](Cc3c[nH]c4ccccc34)NC2=O)cc1
# B8: SEQ ID NO: 152 (Example No. 152) (peptide)
# peptide: cyclo([TyrEtNAc]W[Phe(4-COOH)]G[Pro(trans-4-NH2)][Trp(4-Cl)(βS-Me)]D[dNMeA]G[Bip(4'-COOH)]W[SerOMe][dA][hPhe])
# SMILES: COC[C@@H]1NC(=O)[C@H](Cc2c[nH]c3ccccc23)NC(=O)[C@H](Cc2ccc(-c3ccc(C(=O)O)cc3)cc2)NC(=O)CNC(=O)[C@@H](C)N(C)C(=O)[C@H](CC(=O)O)NC(=O)[C@H]([C@@H](C)c2c[nH]c3cccc(Cl)c23)NC(=O)[C@@H]2C[C@@H](N)CN2C(=O)CNC(=O)[C@H](Cc2ccc(C(=O)O)cc2)NC(=O)[C@H](Cc2c[nH]c3ccccc23)NC(=O)[C@H](Cc2ccc(OCCNC(C)=O)cc2)NC(=O)[C@H](CCc2ccccc2)NC(=O)[C@@H](C)NC1=O
# B9: SEQ ID NO: 161 (Example No. 161) (peptide)
# peptide: cyclo([TyrEtNAc]W[Phe(4-COOH)]G[Pro(trans-4-NH2)][Trp(βS-Me,4-F)]D[dNMeA]G[Bip(4'-COOH)]KL[dS][hTyr])
# SMILES: CC(=O)NCCOc1ccc(C[C@@H]2NC(=O)[C@H](CCc3ccc(O)cc3)NC(=O)[C@@H](CO)NC(=O)[C@H](CC(C)C)NC(=O)[C@H](CCCCN)NC(=O)[C@H](Cc3ccc(-c4ccc(C(=O)O)cc4)cc3)NC(=O)CNC(=O)[C@@H](C)N(C)C(=O)[C@H](CC(=O)O)NC(=O)[C@H]([C@@H](C)c3c[nH]c4cccc(F)c34)NC(=O)[C@@H]3C[C@@H](N)CN3C(=O)CNC(=O)[C@H](Cc3ccc(C(=O)O)cc3)NC(=O)[C@H](Cc3c[nH]c4ccccc34)NC2=O)cc1
# B10: SEQ ID NO: 160 (Example No. 160) (peptide)
# peptide: cyclo([TyrEtNAc]W[Phe(4-COOH)]G[Pro(trans-4-NH2)][Trp(βS-Me,4-F)]D[dNMeA]G[Bip(4'-COOH)]KL[dDab][hTyr])
# SMILES: CC(=O)NCCOc1ccc(C[C@@H]2NC(=O)[C@H](CCc3ccc(O)cc3)NC(=O)[C@@H](CCN)NC(=O)[C@H](CC(C)C)NC(=O)[C@H](CCCCN)NC(=O)[C@H](Cc3ccc(-c4ccc(C(=O)O)cc4)cc3)NC(=O)CNC(=O)[C@@H](C)N(C)C(=O)[C@H](CC(=O)O)NC(=O)[C@H]([C@@H](C)c3c[nH]c4cccc(F)c34)NC(=O)[C@@H]3C[C@@H](N)CN3C(=O)CNC(=O)[C@H](Cc3ccc(C(=O)O)cc3)NC(=O)[C@H](Cc3c[nH]c4ccccc34)NC2=O)cc1
# B11: SEQ ID NO: 158 (Example No. 158) (peptide)
# peptide: cyclo([TyrEtNAc]W[Phe(4-COOH)]G[Pro(trans-4-NH2)][Trp(βS-Me,4-F)]D[dNMeA]G[Bip(4'-COOH)]KL[dA][h3Pal(5-CN)])
# SMILES: CC(=O)NCCOc1ccc(C[C@@H]2NC(=O)[C@H](CCc3cncc(C#N)c3)NC(=O)[C@@H](C)NC(=O)[C@H](CC(C)C)NC(=O)[C@H](CCCCN)NC(=O)[C@H](Cc3ccc(-c4ccc(C(=O)O)cc4)cc3)NC(=O)CNC(=O)[C@@H](C)N(C)C(=O)[C@H](CC(=O)O)NC(=O)[C@H]([C@@H](C)c3c[nH]c4cccc(F)c34)NC(=O)[C@@H]3C[C@@H](N)CN3C(=O)CNC(=O)[C@H](Cc3ccc(C(=O)O)cc3)NC(=O)[C@H](Cc3c[nH]c4ccccc34)NC2=O)cc1
# B12: SEQ ID NO: 162 (Example No. 162) (peptide)
# peptide: cyclo([TyrEtNAc]W[Phe(4-COOH)]G[Pro(trans-4-NH2)][Trp(βS-Me,4-F)]D[dNMeA]G[Bip(4'-COOH)]W[AbuMph][dA]G)
# SMILES: CC(=O)NCCOc1ccc(C[C@@H]2NC(=O)CNC(=O)[C@@H](C)NC(=O)[C@H](CCN3CCOCC3)NC(=O)[C@H](Cc3c[nH]c4ccccc34)NC(=O)[C@H](Cc3ccc(-c4ccc(C(=O)O)cc4)cc3)NC(=O)CNC(=O)[C@@H](C)N(C)C(=O)[C@H](CC(=O)O)NC(=O)[C@H]([C@@H](C)c3c[nH]c4cccc(F)c34)NC(=O)[C@@H]3C[C@@H](N)CN3C(=O)CNC(=O)[C@H](Cc3ccc(C(=O)O)cc3)NC(=O)[C@H](Cc3c[nH]c4ccccc34)NC2=O)cc1
# B13: SEQ ID NO: 157 (Example No. 157) (peptide)
# peptide: cyclo([TyrEtNAc]W[Phe(4-COOH)]G[Pro(trans-4-NH2)][Trp(βS-Me,4-F)]D[dNMeA]G[Bip(4'-COOH)][4Pal][Nva][dA][hTyr])
# SMILES: CCC[C@@H]1NC(=O)[C@H](Cc2ccncc2)NC(=O)[C@H](Cc2ccc(-c3ccc(C(=O)O)cc3)cc2)NC(=O)CNC(=O)[C@@H](C)N(C)C(=O)[C@H](CC(=O)O)NC(=O)[C@H]([C@@H](C)c2c[nH]c3cccc(F)c23)NC(=O)[C@@H]2C[C@@H](N)CN2C(=O)CNC(=O)[C@H](Cc2ccc(C(=O)O)cc2)NC(=O)[C@H](Cc2c[nH]c3ccccc23)NC(=O)[C@H](Cc2ccc(OCCNC(C)=O)cc2)NC(=O)[C@H](CCc2ccc(O)cc2)NC(=O)[C@@H](C)NC1=O
# Target: Recombinant human IL-1β (BioLegend 579404) (human, UniProt P01584 117-269)
# Assay: cell-based or functional assay
row,MRC5 IC50,Binder
1,75.9 pM,B1
2,948 pM,B2
3,118 pM,B3
4,196 pM,B4
5,88 pM,B5
6,220 pM,B6
7,63.3 pM,B7
8,60 pM,B8
9,483 pM,B9
10,522 pM,B10
11,25.7 pM,B11
12,749 pM,B12
13,403 pM,B13

# From patent US20230406885A1, “CYCLIC PEPTIDES FOR TRAPPING INTERLEUKIN-1 BETA” (MERCK SHARP & DOHME LLC, priority 2022, published 2023)
